# Source: the domain aggregation screens of Martell et al. (2025)
# Experiment: soluble fraction after stress (log2 fold change); higher = more stays soluble; pooled small domains, quantitative proteomics
# Conditions: stress: 50 degC
# Procedure, shortened: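 Custom libraries of small protein domains were pooled and measured in a high-throughput format, with quantitative proteomics as the read-out. Each library was stressed at 50°C. The value is the log2 fold change in the amount of each protein that stays soluble after stress, used as a measure of aggregation propensity; higher values mean more of the protein stays soluble.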
row,Sequence,soluble fraction (log2)
1,HMRRELDSEHKRQEILFAAKRLLLAEGYDATSMSRLAKEAGVAPNTLYWYFKDKDELLIAILDELVAE,-1.72
2,HMRRGKLGMASRLEQIPGIGPKKRKALLKAFGNSIDAIKSAPVEDLMKVKGINLVLAESIKEL,0.0167
3,HMRRMTEEQSKLFQGLVSIVQTTLVADMEKGAVTPLLIAEKVDFVADNLYPGKDIDRKEAVAELIRRFSLW,-0.339
4,HMRRSKQERQQAIKTLISNEQIQRQEDLVRKLNEAGWEVTQATISRDITEMQLVKVPLPTGGFAYAVM,0.126
5,HMRRSKVMLESILDEIPQMGQARRAALLEQFGSVAALRKASLAEIAMTPGIGEKIAVIIFEYLQKSSH,-1.17
6,HMRRTEKEIEQDVMRAIATIISEKGISSVTIKEVSNLSKTDVIVLERRFKNDEGLIKAYTSQ,-0.166
7,HMRSFADEGTVEEWIKQAIRENEAAVADYRKGKETAVKFLMGQVMRLSKGEANPADLEDKIKAKLD,0.0903
8,HMRSFGTVAQARGRWKAFYVGPDKRRHTPGVTFSNPIRAQGWLAQELTLIELGQWTPPAQRREKAEVAS,-2.4
9,HMRSIVETLTDRELEIFQLIGNGFSTGEIARRLNLSPHTIETHRKNIKDKLGLSSGSELNKQAIQWVLSS,0.153
10,HMRSKTSYAVWTPIQIDAGSQMQALQSKGFNTVLMEGGISVGIRSDKAQAQALLNRLQGAGFTGQLREVN,-0.183
11,HMRSLATFEEEKIALRFWNYLQSEGIKSTLEEEGPRDWVIWVIDEEKIPSATQSLEKFNLNPDDPAFSN,-0.438
12,HMRSLVDRSVQAVTDHIRENALRVGDSLPGEAYFATSLGVSRAVMREAFGALAALRVIDVGNGRKPRVGAI,-0.58
13,HMRSMEKRLTAKVKRVQEGVQAKSQAGEQPFEVVKLMQRFPKLMQFGKHAEAETVLDKALELLGEE,0.172
14,HMRSQLALVVRTGESQRLDNFLVNNLAWKSRNRLQGLIREGLVTVNGEKTKASRRVHLDDLVEIHL,-1.25
15,HMRSTIYEFTVPPGQLESIRLDVYITSFVENATRSKVQEAIKQGYVWVNGKHEKASYTMLPGDKIYIELPI,-1.79
16,HMRSVEVAAEPGMVLEDRQTGFVGAVVAVEKSGGTHLVVLEDRHGLRRGFPLGPGFWLEGRPVVLAPPP,-0.227
17,HMRTANREKRIEASVKMMKAGYPVGYIIARVFMYEGWEEDYRQLLIYLSEKIPKDVSNPITFEVIS,-0.296
18,HMRTEGNLGAKVRVLRRSQGMTQAELARRLGISPSYLNLIEHNRRSFTADLLVKLAKILPVNLKT,-1.36
19,HMRTITYSITPAHAGMSVERYLKQQHGYSTRTLVKLKHYPQGLQLNGQHARTVDLLQAGDTLAVTFLD,-0.552
20,HMRTLSAGVAGRLRADILNGLLEPGRRLGMAELTERYGAGMSPVREALSRLVGEGLVQSEGQRGFRVA,-0.0944
21,HMRTMFGQRLRLARKRAGLSMQALADRVTPSVSAQAISKYEADQMMPSSSVLVGLGKALGVSLDFLVGGQ,-0.536
22,HMRTNVDISPKILEWVLSQVRNRTTNDVIETIQIWIKGEKPPTFNQVEKISKATGVPLGYFFLKTPPVED,-0.805
23,HMRTPLTGREEQVATLIGRGMTNSEIAESLSVDESTVKTHIGSILRKVHLRDRLQVALWFHGLPIE,-0.495
24,HMRTTYKTRLETLLAGPMSAGDRRFASSLLDFYNRKNRLTPGRARFVAQLEDRYSAEALAARQG,-0.961
25,HMRTVEQFQIRKIYAISNALGISDSRADEDELHVLVSGLTGKDSIKELTYREASVVIERLEELQ,-2.54
26,HMRVDDITDTILNVLKEQGGFISVTDKSSPETINKLFGVSKKTYKKAIGAIYRKKLIIIEDDGIRLNS,-1.84
27,HMRVDRSALDSIPGVGPGRKRTLLHHFGSARAVEASGLADLESIRGISKALARKIYDFFHPE,-1.38
28,HMRVELVVVPELRQQLLPEARELANSAGLQLRVRGQSPADETRTIVVTQSPAAGTRVAARSIVLVE,-0.539

row,Sequence,soluble fraction (log2)
1,HMRVPTVIGMDEGTAKATLANASLKSNIVYESDETKENGKVLSQGIEQNKEVKAGTTVEIKVNKIE,-0.0202
2,HMRVTEVSYDKFLDMLSGGQVTVVELQENERELYFKAADENGAERIYSTGVFPDADLQKRLSESGVTF,-0.025
3,HMRYLHTMIRVSDLEESLNFFKLLDIHEVSRKENEQARFTLVFLSATGDEKLVENAKSPLIELTFN,-0.0584
4,HMRYLMPDLVNRRYEPVRSLLEARGIRFGNVIFEPYEGLPPGIVLRQDPPAGHPLPRRRTVSLVVSGPGGR,-1.88
5,HMRYQIAEARKLRDITQAELAEKMGTTQQTIQRYETNQVNIRMDKMIEMSEILNVSLAYLLGMSSSPEL,-0.901
6,HMRYVVQVATFSSKNNAIRAADDLAGFVVVSNGYYRVRTGPYADRGEANAALAKARKAGYTDAFVDTS,-0.798
7,HMSAAYVYVTGTRVNQRDGPSTFDRVMGVLVEGTRVQLLRDQGQWAQIRSDLGTGWLSSGFLSRNG,-1.87
8,HMSADKAEAAEASLKSFNLRLQAAAMEAGKTFAPVTADQYAEYKAAWGTYIRKGIEGLSESEKKTINVG,-0.03
9,HMSAETREELVGREGVSLTDLRPSGFALFGQEKIDVVSESEFIEEGTSVRIVSVEGSRHIVRAKR,0.0998
10,HMSAISSARKEKIIEYLTDHGSARSSEIAEYVDLRPSRVRDYLGELVREDIVVAEGANRNRTYRLK,0.0293
11,HMSAPGYRAVYPGMLESERQTAYELLSSSGFDVKINTSSGELEVTTDRYHEARMVMASQNIPK,0.0432
12,HMSAPVFRITPAGVVVNGLKRSDILTLTRIDGAMNTLPHNAGEVLVSTEGLAKGVYVITAGGKSLKFLV,-1.36
13,HMSAQPMEYSRFYSDVTQGRVAEVEIEGREINGRLSTGERFKTFSPETDNKALIGHLLDNGVVIEGKPP,0.234
14,HMSASEKLFEARKNLNIVNVLGKNPVDRYDIVKILKHGDHYHIYDSKGNEGITYTNPKSLYPEAEFGEYQG,0.12
15,HMSASTGTVSYKSGATTVWNSPSWHQVKRYVTFGDTVQLLGKTVDQNGATWYKVGDNQWIPELYLNVAG,-0.508
16,HMSATEPVHFDPNKSPEDMTVEELQAGILAKMANNGPVSDQMKKTVNENIWHDSLVNWLKSF,0.0373
17,HMSATPQRMSIINELDSARKNLSAYDLRDSLKDKGHSFNISTIYRVLSFWIDVGVVHKMDSSNTYL,0.147
18,HMSATVLVHVLGEVRKPGVVSLPEGSRVQDAITAAGGLTSRAKPGDLNLAARVSDGAQLVIGRSGSQVRTT,-0.0286
19,HMSAVVAPLPGLIQNILVKVGDTVHAGQHVLTMEAMKMENEIQTNRDGIIKDIKVRIGDSVNEGDTLIIL,-0.0224
20,HMSDAGAIEPTIKEILASNPKAVEEYLAGNIKNINALIGQSMKALHGKADPQTVRNLLAKLLDEM,-0.219
21,HMSDAIQLEQKIGLEAIEWYLALSEQTDDKLLYQQWQSWLAADPQHQLAWSRIEQVNHGLNTL,-0.706
22,HMSDAVQLGLRLRAARERRGLSQQAVADALGLPRTAVTNMESGNRAVSTLELTKLAALYGQSTAFFLSP,-0.1
23,HMSDDVELLGRLSDREVSVLQYLSQGYSNKQISEQMFISNKTVSTYKARLLLKLNAGSLVDLIEFAKRNTL,-1.4
24,HMSDEINYVIQINGKNRAEAEFGANLDKESIENLALEHERIKELLNGLTVRKIIVVPKKLVNIVA,-0.312
25,HMSDESALLELVKQIIADNPKAVEEIRAGKEKAMGFLIGQAMKASRGSANPQIISRLVREQLG,0.128
26,HMSDFDPTLILDLIKGSGEALTKREIARALGIKGGDKRIELKSHLKSMEAEGVIVKQAGGAYSVP,-0.122
27,HMSDFSNLNLLELNSSELDLLLRRASSQGLTQMDLLKMARSQGLSEADLIKVKGKIDTSESIKR,-0.0148
